Tested on: SARS-CoV-2 gRNA and sgRNAs
Format: binding
Conditions: for target (unweighted spectral count in RNP capture): Probe II capture, LC-MS/MS LFQ; for background (unweighted spectral count in control): no-probe control pull-down, used as background for Probe II; for target (unweighted spectral count of the protein in the RNP capture experiment): LC-MS/MS label-free quantification, probe pool not given; for back-ground (unweighted spectral count of the protein in the control experiment): protein background of the control (e.g. no-probe) experiment

B1: FAM120C (protein, UniProt Q9NX05 1-1096, looked up)
Constitutive coactivator of …: MGVQGFQEFLEKRCPGAVVPVDLLKLARTVSRQQQQQHLHRQLPPTAALAPGAPRAARGSVPLQPPLPPAALGAYSGGAGPTRHHHPAHHFHHHGQAQPGLHPPLPPPPPPQLPGARVLVDAGSALPRLYGGYQTDWVCGGQWNAMLGYLSALCQACAYPGGDGLELVVMFPGGLGKDRLAEWGRRCQAERQTAQLIVGHVGNKGTPPPRAWFLPPACLSHCVRLALIRFRVKVFQSLEDHHLEVVAFFRENGFHGLLAHDSEYALYNIPSYYSSHALKLSWNGKNLTTNQFLMQEVAKQLGLKRMNFPIFAALLGNHILPDEDLAAFHWSLLGPEHPLASLKVRAHQLVLPPCDVVIKAVSEYVSSIKDPSNLDVVGKDVFKQSQSRTEDKIERFKKAVEYYSVTTKLSSLPVGPSFLGFRNNRLGNPPLPRNQVGTISAGKPMFSHQVPQKVKYPPPFPVGPNSSLLFSSHALGESHAFSEDPMLQNSPFANWAVSYDSSASQFPNYLPSKASPPLGPDSSHSSSSDGDEPNGASSDHITEAFHHQPEWGNPNRDRGSWAQPVDTGVSEASLGDGEPHIPSLLSMSTRNHMDITIPPLPPVAPEVLRVAEHRHRRGLMYPYIYHVLTKGEIKIPVCIEDECNMELPPAALLFRSARQYVYGVLFSLAETQRKMERLAMRRRLPVEVPSVILKEWSAYKGKSPQTPELVSALTFREWTCPNLKKLWLGKAVEDKNRRMRAFLACMKSDTPSMLNPANVPTHLLLMCCVLRYMVQWPGGRILHRHELDTFLAQAVSTQLYEPDRLQELKIEKLDARGIQLAALFMSGVDTALFANDACGQPVPWEHCCPWIYFDGKLFQSKLIKAGRERVSLVELCDGQADLATKVEKMRQSILEGVNMNHPPPSALLPSPTFVPPMVPSLYPVSLYSRAMGSMPLPPQGRSRGFAGLHPIPPQGGKLEIAGMVVGQWAGSRSSRGRGSFGMQVVSVGGPGKGHGKEQTGRGSKGHKKGNKQGSSDGVSKSLELHQGRSRSQVNGNSGALIKEEKSDHRLPAPSQCALSRDSNECNNGNRYLPMNNREKNHLQEQKLETVAQRKED
- target (unweighted spectral count in RNP capture): 14
- background (unweighted spectral count in control): 1

B2: BICC1 (protein, UniProt Q9H694 1-974, looked up)
Protein bicaudal C homolog 1: MAAQGEPGYLAAQSDPGSNSERSTDSPVPGSEDDLVAGATLHSPEWSEERFRVDRKKLEAMLQAAAEGKGRSGEDFFQKIMEETNTQIAWPSKLKIGAKSKKDPHIKVSGKKEDVKEAKEMIMSVLDTKSNRVTLKMDVSHTEHSHVIGKGGNNIKKVMEETGCHIHFPDSNRNNQAEKSNQVSIAGQPAGVESARVRIRELLPLVLMFELPIAGILQPVPDPNSPSIQHISQTYNISVSFKQRSRMYGATVIVRGSQNNTSAVKEGTAMLLEHLAGSLASAIPVSTQLDIAAQHHLFMMGRNGSNIKHIMQRTGAQIHFPDPSNPQKKSTVYLQGTIESVCLARQYLMGCLPLVLMFDMKEEIEVDPQFIAQLMEQLDVFISIKPKPKQPSKSVIVKSVERNALNMYEARKCLLGLESSGVTIATSPSPASCPAGLACPSLDILASAGLGLTGLGLLGPTTLSLNTSTTPNSLLNALNSSVSPLQSPSSGTPSPTLWAPPLANTSSATGFSAIPHLMIPSTAQATLTNILLSGVPTYGHTAPSPPPGLTPVDVHINSMQTEGKKISAALNGHAQSPDIKYGAISTSSLGEKVLSANHGDPSIQTSGSEQTSPKSSPTEGCNDAFVEVGMPRSPSHSGNAGDLKQMMCPSKVSCAKRQTVELLQGTKNSHLHSTDRLLSDPELSATESPLADKKAPGSERAAERAAAAQQNSERAHLAPRSSYVNMQAFDYEQKKLLATKAMLKKPVVTEVRTPTNTWSGLGFSKSMPAETIKELRRANHVSYKPTMTTTYEGSSMSLSRSNSREHLGGGSESDNWRDRNGIGPGSHSEFAASIGSPKRKQNKSTEHYLSSSNYMDCISSLTGSNGCNLNSSFKGSDLPELFSKLGLGKYTDVFQQQEIDLQTFLTLTDQDLKELGITTFGARRKMLLAISELNKNRRKLFESPNARTSFLEGGASGRLPRQYHSDIASVSGRW
- target (unweighted spectral count in RNP capture): 11
- background (unweighted spectral count in control): 1

B3: CAPRIN1 (protein, UniProt Q14444 2-709, looked up)
Caprin-1: PSATSHSGSGSKSSGPPPPSGSSGSEAAAGAGAAAPASQHPATGTGAVQTEAMKQILGVIDKKLRNLEKKKGKLDDYQERMNKGERLNQDQLDAVSKYQEVTNNLEFAKELQRSFMALSQDIQKTIKKTARREQLMREEAEQKRLKTVLELQYVLDKLGDDEVRTDLKQGLNGVPILSEEELSLLDEFYKLVDPERDMSLRLNEQYEHASIHLWDLLEGKEKPVCGTTYKVLKEIVERVFQSNYFDSTHNHQNGLCEEEEAASAPAVEDQVPEAEPEPAEEYTEQSEVESTEYVNRQFMAETQFTSGEKEQVDEWTVETVEVVNSLQQQPQAASPSVPEPHSLTPVAQADPLVRRQRVQDLMAQMQGPYNFIQDSMLDFENQTLDPAIVSAQPMNPTQNMDMPQLVCPPVHSESRLAQPNQVPVQPEATQVPLVSSTSEGYTASQPLYQPSHATEQRPQKEPIDQIQATISLNTDQTTASSSLPAASQPQVFQAGTSKPLHSSGINVNAAPFQSMQTVFNMNAPVPPVNEPETLKQQNQYQASYNQSFSSQPHQVEQTELQQEQLQTVVGTYHGSPDQSHQVTGNHQQPPQQNTGFPRSNQPYYNSRGVSRGGSRGARGLMNGYRGPANGFRGGYDGYRPSFSNTPNSGYTQSQFSAPRDYSGYQRDGYQQNFKRGSGQSGPRGAPRGRGGPPRPNRGMPQMNTQQVN
- target (unweighted spectral count in RNP capture): 10
- background (unweighted spectral count in control): 1

B4: NUFIP2 (protein, UniProt Q7Z417 1-695, looked up)
FMR1-interacting protein …: MEEKPGQPQPQHHHSHHHPHHHPQQQQQQPHHHHHYYFYNHSHNHHHHHHHQQPHQYLQHGAEGSPKAQPKPLKHEQKHTLQQHQETPKKKTGYGELNGNAGEREISLKNLSSDEATNPISRVLNGNQQVVDTSLKQTVKANTFGKAGIKTKNFIQKNSMDKKNGKSYENKSGENQSVDKSDTIPIPNGVVTNNSGYITNGYMGKGADNDGSGSESGYTTPKKRKARRNSAKGCENLNIVQDKIMQQETSVPTLKQGLETFKPDYSEQKGNRVDGSKPIWKYETGPGGTSRGKPAVGDMLRKSSDSKPGVSSKKFDDRPKGKHASAVASKEDSWTLFKPPPVFPVDNSSAKIVPKISYASKVKENLNKTIQNSSVSPTSSSSSSSSTGETQTQSSSRLSQVPMSALKSVTSANFSNGPVLAGTDGNVYPPGGQPLLTTAANTLTPISSGTDSVLQDMSLTSAAVEQIKTSLFIYPSNMQTMLLSTAQVDLPSQTDQQNLGDIFQNQWGLSFINEPSAGPETVTGKSSEHKVMEVTFQGEYPATLVSQGAEIIPSGTEHPVFPKAYELEKRTSPQVLGSILKSGTTSESGALSLEPSHIGDLQKADTSSQGALVFLSKDYEIESQNPLASPTNTLLGSAKEQRYQRGLERNDSWGSFDLRAAIVYHTKEMESIWNLQKQDPKRIITYNEAMDSPDQ
- target (unweighted spectral count in RNP capture): 10
- background (unweighted spectral count in control): 1

B5: CRIP2 (protein, UniProt P52943 1-208, looked up)
Cysteine-rich protein 2: MASKCPKCDKTVYFAEKVSSLGKDWHKFCLKCERCSKTLTPGGHAEHDGKPFCHKPCYATLFGPKGVNIGGAGSYIYEKPLAEGPQVTGPIEVPAARAEERKASGPPKGPSRASSVTTFTGEPNTCPRCSKKVYFAEKVTSLGKDWHRPCLRCERCGKTLTPGGHAEHDGQPYCHKPCYGILFGPKGVNTGAVGSYIYDRDPEGKVQP
- target (unweighted spectral count of the protein in the RNP capture experiment): 6
- back-ground (unweighted spectral count of the protein in the control experiment): 1

B6: ACLY (protein, UniProt P53396 1-1101, looked up)
ATP-citrate synthase: MSAKAISEQTGKELLYKFICTTSAIQNRFKYARVTPDTDWARLLQDHPWLLSQNLVVKPDQLIKRRGKLGLVGVNLTLDGVKSWLKPRLGQEATVGKATGFLKNFLIEPFVPHSQAEEFYVCIYATREGDYVLFHHEGGVDVGDVDAKAQKLLVGVDEKLNPEDIKKHLLVHAPEDKKEILASFISGLFNFYEDLYFTYLEINPLVVTKDGVYVLDLAAKVDATADYICKVKWGDIEFPPPFGREAYPEEAYIADLDAKSGASLKLTLLNPKGRIWTMVAGGGASVVYSDTICDLGGVNELANYGEYSGAPSEQQTYDYAKTILSLMTREKHPDGKILIIGGSIANFTNVAATFKGIVRAIRDYQGPLKEHEVTIFVRRGGPNYQEGLRVMGEVGKTTGIPIHVFGTETHMTAIVGMALGHRPIPNQPPTAAHTANFLLNASGSTSTPAPSRTASFSESRADEVAPAKKAKPAMPQDSVPSPRSLQGKSTTLFSRHTKAIVWGMQTRAVQGMLDFDYVCSRDEPSVAAMVYPFTGDHKQKFYWGHKEILIPVFKNMADAMRKHPEVDVLINFASLRSAYDSTMETMNYAQIRTIAIIAEGIPEALTRKLIKKADQKGVTIIGPATVGGIKPGCFKIGNTGGMLDNILASKLYRPGSVAYVSRSGGMSNELNNIISRTTDGVYEGVAIGGDRYPGSTFMDHVLRYQDTPGVKMIVVLGEIGGTEEYKICRGIKEGRLTKPIVCWCIGTCATMFSSEVQFGHAGACANQASETAVAKNQALKEAGVFVPRSFDELGEIIQSVYEDLVANGVIVPAQEVPPPTVPMDYSWARELGLIRKPASFMTSICDERGQELIYAGMPITEVFKEEMGIGGVLGLLWFQKRLPKYSCQFIEMCLMVTADHGPAVSGAHNTIICARAGKDLVSSLTSGLLTIGDRFGGALDAAAKMFSKAFDSGIIPMEFVNKMKKEGKLIMGIGHRVKSINNPDMRVQILKDYVRQHFPATPLLDYALEVEKITTSKKPNLILNVDGLIGVAFVDMLRNCGSFTREEADEYIDIGALNGIFVLGRSMGFIGHYLDQKRLKQGLYRHPWDDISYVLPEHMSM
- target (unweighted spectral count of the protein in the RNP capture experiment): 6
- back-ground (unweighted spectral count of the protein in the control experiment): 1

B7: SPATS2 (protein, UniProt Q86XZ4 1-545, looked up)
Spermatogenesis-associated …: MSRKQNQKDSSGFIFDLQSNTVLAQGGAFENMKEKINAVRAIVPNKSNNEIILVLQHFDNCVDKTVQAFMEGSASEVLKEWTVTGKKKNKKKKNKPKPAAEPSNGIPDSSKSVSIQEEQSAPSSEKGGMNGYHVNGAINDTESVDSLSEGLETLSIDARELEDPESAMLDTLDRTGSMLQNGVSDFETKSLTMHSIHNSQQPRNAAKSLSRPTTETQFSNMGMEDVPLATSKKLSSNIEKSVKDLQRCTVSLARYRVVVKEEMDASIKKMKQAFAELESCLMDREVALLAEMDKVKAEAMEILLSRQKKAELLKKMTHVAVQMSEQQLVELRADIKHFVSERKYDEDLGRVARFTCDVETLKKSIDSFGQVSHPKNSYSTRSRCSSVTSVSLSSPSDASAASSSTCASPPSLTSANKKNFAPGETPAAIANSSGQPYQPLREVLPGNRRGGQGYRPQGQKSNDPMNQGRHDSMGRYRNSSWYSSGSRYQSAPSQAPGNTIERGQTHSAGTNGTGVSMEPSPPTPSFKKGLPQRKPRTSQTEAVNS
- target (unweighted spectral count of the protein in the RNP capture experiment): 5
- back-ground (unweighted spectral count of the protein in the control experiment): 1
